Article PMC4652760

Key:
[1] = target: Streptomyces coelicolor RNase J (SCO5745) (Streptomyces coelicolor); assay: AUC; analytical ultracentrifugation, data not shown; conditions not given
[2] = target: Streptomyces coelicolor RNase J (SCO5745) (Streptomyces coelicolor); assay: crystal structure; crystals from 27.5% w/v PEG 400, 0.1 M Tris-HCl pH 8.5, 18°C; co-purified RNA bound; space group P4(3)22, two protomers in the asymmetric unit; tetramer by crystallographic 2-fold symmetry

Q: How did the stoichiometry N [1] turn out when “Streptomyces coelicolor RNase J (SCO5745) (enzyme)” was run?
A: 4

Q: And the stoichiometry N [2]?
A: 4
